This passage reports Kd results from article PMC3501490 (2012).

The experiment concerns the target T1, G6B-b dual phosphopeptide pY211/pY237 (Homo sapiens, UniProt O95866, pY211+pY237).
T1 chain: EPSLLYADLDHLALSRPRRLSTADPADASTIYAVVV
As to the kind of experiment: SPR. (In general: Surface plasmon resonance follows binding to a sensor surface in real time, without labels.)

As usually defined, the Kd is the equilibrium constant for the complex coming apart.

B1: SHP-1 tandem SH2 (protein)
chain: WFHRDLSGLDAETLLKGRGVHGSFLARPSRKNQGDFSLSVRVGDQVTHIRIQNSGDFYDLYGGEKFATLTELVEYYTQQQGVLQDRDGTIIHLKYPLNCSDPTSERWYHGHMSGGQAETLLQAKGEPWTFLVRESLSQPGDFVLSVLSDQPKAGPGSPLRVTHIKVMCEGGRYTVGGLETFDSLTDLVEHFKKTGIEEASGAFVYLRQPY
B1 had a Kd of 35.3 nM. This counts as double-digit nanomolar.
